Four molecules from patent US20110091480A1 (published 2011) can be followed below.

Experiment [1] deals with T1, ORF0657n-H/y (SEQ ID NO: 3) (S. aureus, UniProt A6QG30 42-609).
T1 construct: also called Yeast expressed ORF0657n-H/y antigen
Briefly: Western blot (dot blot confirmed by Western). In general terms: A western blot detects proteins with antibodies after separation by electrophoresis.

The target in experiment [2] is T2, ORF0657t (ORF0657n fragment from amino acid 42 to amino acid 486 of SEQ ID NO: 1) (S. aureus, UniProt A5IS15 42-486).
T2 construct: also called ORFO657t
Briefly: SPR Biacore 3000, IgG captured as ligand, ORF0657t as analyte. For orientation: Surface plasmon resonance follows binding to a sensor surface in real time, without labels.

For experiment [3], the target named is T3, ORF0657t CNBr fragment [001-323] (Band 35 kDa) (S. aureus, UniProt A5IS15 42-363).
T3 construct: also called 35 kDa band
T3 sequence: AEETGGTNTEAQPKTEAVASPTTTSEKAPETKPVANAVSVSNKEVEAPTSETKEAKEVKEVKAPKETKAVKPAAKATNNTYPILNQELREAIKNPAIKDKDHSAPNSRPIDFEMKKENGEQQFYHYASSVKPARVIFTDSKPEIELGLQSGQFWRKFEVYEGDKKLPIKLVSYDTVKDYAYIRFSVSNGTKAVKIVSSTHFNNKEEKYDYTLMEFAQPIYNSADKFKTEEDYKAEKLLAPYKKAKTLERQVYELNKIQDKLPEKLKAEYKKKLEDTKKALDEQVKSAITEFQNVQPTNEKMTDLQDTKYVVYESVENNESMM
Briefly: Western blot of CNBr cleavage products of ORF0657t with 2H2 mAb.

The target in experiment [4] is T4, ORF0657t CNBr fragment [114-214] (Band 10 kDa) (S. aureus, UniProt A5IS15 154-254).
T4 construct: also called 10 kDa band
T4 sequence: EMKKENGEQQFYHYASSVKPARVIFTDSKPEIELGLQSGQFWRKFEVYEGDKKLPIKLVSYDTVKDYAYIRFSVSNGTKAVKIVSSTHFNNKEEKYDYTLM
Briefly: Western blot of CNBr cleavage products of ORF0657t with 2H2 mAb (Band 10 kDa).

Experiment [5] deals with T5, ORF0657t CNBr fragment [215-302] (Band 10 kDa) (S. aureus, UniProt A5IS15 255-342).
T5 construct: also called 10 kDa band
T5 sequence: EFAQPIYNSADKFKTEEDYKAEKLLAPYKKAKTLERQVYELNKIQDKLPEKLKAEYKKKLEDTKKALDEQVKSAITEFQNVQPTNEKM
The experiment is described as above.

Experiment [6] has as its target T6, ORF0657t CNBr fragment [357-446] (Band 10 kDa) (S. aureus, UniProt A5IS15 397-486).
T6 construct: also called 10 kDa band
The experiment is described as above.

Experiment [7] deals with T7, ORF0657t CNBr fragment [215-356] (Band 15 kDa) (S. aureus, UniProt A5IS15 255-396).
T7 construct: also called 15 kDa band
Nature of the experiment: Western blot of CNBr cleavage products of ORF0657t with 2H2 mAb (Band 15 kDa).

In experiment [8] the target is T8, ORF0657t CNBr fragment [303-446] (Band 15 kDa) (S. aureus, UniProt A5IS15 343-486).
T8 construct: also called 15 kDa band
T8 sequence (A5IS15 343-486): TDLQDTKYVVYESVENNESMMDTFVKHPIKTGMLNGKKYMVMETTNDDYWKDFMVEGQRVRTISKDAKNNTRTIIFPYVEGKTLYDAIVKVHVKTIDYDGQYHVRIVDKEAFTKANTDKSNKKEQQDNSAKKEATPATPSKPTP
The experiment is described as above.

Experiment [9] deals with T9, ORF0657t CNBr fragment [001-214] (Band 25 kDa) (S. aureus, UniProt A5IS15 42-254).
T9 construct: also called 25 kDa band
T9 sequence: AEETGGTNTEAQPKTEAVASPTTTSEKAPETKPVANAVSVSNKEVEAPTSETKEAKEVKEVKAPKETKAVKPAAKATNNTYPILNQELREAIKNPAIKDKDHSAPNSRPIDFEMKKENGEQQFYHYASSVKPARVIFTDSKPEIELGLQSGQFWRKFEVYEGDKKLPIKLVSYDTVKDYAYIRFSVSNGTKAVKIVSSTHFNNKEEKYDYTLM
Briefly: Western blot of CNBr cleavage products of ORF0657t with 2H2 mAb (Band 25 kDa).

Experiment [10] addresses T10, ORF0657t CNBr fragment [116-302] (Band 25 kDa) (S. aureus, UniProt A5IS15 156-342).
T10 construct: also called 25 kDa band
T10 sequence: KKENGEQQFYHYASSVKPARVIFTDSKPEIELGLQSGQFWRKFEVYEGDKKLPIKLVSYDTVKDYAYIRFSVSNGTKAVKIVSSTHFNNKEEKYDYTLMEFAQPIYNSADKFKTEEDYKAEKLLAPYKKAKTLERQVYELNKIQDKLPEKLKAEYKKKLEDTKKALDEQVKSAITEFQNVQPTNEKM
The description is as above.

For experiment [11], the target named is T2, ORF0657t (ORF0657n fragment from amino …). Briefly: SPR Biacore 3000, ORF0657t bound to the surface, antibody fragment as analyte.

T6 sequence (A5IS15 397-486): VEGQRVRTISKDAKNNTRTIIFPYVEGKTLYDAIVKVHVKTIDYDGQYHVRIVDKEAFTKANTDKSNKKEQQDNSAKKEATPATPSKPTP
T1 sequence (A6QG30 42-609, tags left off): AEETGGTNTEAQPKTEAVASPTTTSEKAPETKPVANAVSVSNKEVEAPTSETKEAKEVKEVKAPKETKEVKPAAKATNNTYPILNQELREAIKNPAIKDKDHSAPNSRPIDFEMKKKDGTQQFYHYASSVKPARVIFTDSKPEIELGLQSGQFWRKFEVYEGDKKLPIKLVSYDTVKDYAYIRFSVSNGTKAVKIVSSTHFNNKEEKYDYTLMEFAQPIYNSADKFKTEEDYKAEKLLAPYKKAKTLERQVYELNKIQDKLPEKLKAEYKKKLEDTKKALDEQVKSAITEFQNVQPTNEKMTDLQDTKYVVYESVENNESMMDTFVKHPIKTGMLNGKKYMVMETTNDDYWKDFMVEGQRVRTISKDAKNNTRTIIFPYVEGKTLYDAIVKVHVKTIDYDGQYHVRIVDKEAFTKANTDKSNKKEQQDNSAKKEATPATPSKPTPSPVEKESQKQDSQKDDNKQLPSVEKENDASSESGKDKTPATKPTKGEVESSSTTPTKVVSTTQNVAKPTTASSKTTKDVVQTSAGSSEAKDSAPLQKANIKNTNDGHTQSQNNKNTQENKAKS

B1: mAb 2H2.B8 (antibody, V domains shown)
VH: DVHLVESGPGLVAPSQNLSITCTVSGFSLSRYGVHWVRQPPGKGLEWLGLIWAGGVTIYNSTLMSRLSISKDSSKSQVFLKMNSLQIDDTAIYYCAREASRDHYFDYWGQGTTLTVSS
VL: DIVMTQSPAIMSASPGEKITMTCSASSSVSYIYWYQQKSGTSPKRWIYDTSKLASGVPFRFSGGGSGTSFSLTISSMEAEDAATYYCQQWSSNPLTFGAGTKLEIKR
notes: also called 2H2.B8 (IgG1)
Turning to B1, the binding result in experiment [1] is given as “binds”.

B2: 2H2 IgG chimera (antibody, V domains shown)
VH: B1 VH
VL: B1 VL
notes: also called chimeric antibody; Mouse 2H2 Variable and Human IgG1 / Human Kappa Constant Region
For B2, in experiment [2], the Kd (usually the free concentration of one partner at which half of the binding sites on the other are occupied at equilibrium, for simple one-to-one binding) was 25 nM; the koff (commonly the first-order rate constant of dissociation) was found to be 0.00273 s⁻¹; the kon (in general, the second-order rate constant of association) worked out at 110000 M⁻¹ s⁻¹.

B3: mAb 2H2.BE11 (antibody, V domains shown)
VH: B1 VH
VL: B1 VL
notes: also called 2H2.BE11 (IgG2b); 2H2 mAb
For the molecule B3, the Kd in [2] amounted to 33 nM. In [2], the koff was 0.00201 s⁻¹. Besides, in experiment [2], the kon turned out to be 61000 M⁻¹ s⁻¹. For the same molecule, the binding result in experiment [3], in [4], in [5], in experiment [6], in [7] and in experiment [8] was “no binding” throughout. The binding result in experiment [9] and in experiment [10] was “no binding” each time.

B4: 2H2 scAb (scFv)
scFv: DIVMTQSPAIMSASPGEKITMTCSASSSVSYIYWYQQKSGTSPKRWIYDTSKLASGVPFRFSGGGSGTSFSLTISSMEAEDAATYYCQQWSSNPLTFGAGTKLEIKRGGGGSGGGGSGGGGSGGGGSDVHLVESGPGLVAPSQNLSITCTVSGFSLSRYGVHWVRQPPGKGLEWLGLIWAGGVTIYNSTLMSRLSISKDSSKSQVFLKMNSLQIDDTAIYYCAREASRDHYFDYWGQGTTLTVSSRTVAAPSVFIFPPSDEQLKSGTASVVCLLNNFYPREAKVQWKVDNALQSGNSQESVTEQDSKDSTYSLSSTLTLSKADYEKHKVYACEVTHQGLSSPVTKSFNRGEC
notes: domain: human kappa light chain constant domain; also called 2H2 clone; scFv with a Human Kappa chain tag
In experiment [11], B4 came in with a Kd of 39 nM, a koff of 0.00191 s⁻¹ and a kon of 49100 M⁻¹ s⁻¹.
